Laboratory results: patent US20220242957A1 (MARENGO THERAPEUTICS, published 2022)
Where a chain is given by its changes, count along the chain named. Names and notes keep the numbering of the source.

B1: BIM0554 (antibody, human IgG1, lambda)
heavy: not shown
light: SLVLTQPPSVSVAPGKTARITCGGNNIGSKSVHWYQQKPGQAPVLVVYDDSDRPSGIPERFSGSNSGNTATLTISRVEAGDEADYYCQVWDSSSDHVVFGGGTQLTVLGQPKANPTVTLFPPSSEELQANKATLVCLISDFYPGAVTVAWKADGSPVKAGVETTKPSKQSNNKYAASSYLSLTPEQWKSHRSYSCQVTHEGSTVEKTVAPTECS
chain: not shown
B2: BIM0548 (antibody, human IgG1, lambda)
heavy: EVQLVESGGGLVQPGGSLRLSCAASGFTFSNDEMNWIRQAPGKGLEWVSYISSRSSTIYYADAVKGRFTISRDNARNSLYLQMNSLRAEDTAVYYCARSVDGDGSFDYWGQGTLVTVSSASTKGPSVFPLAPSSKSTSGGTAALGCLVKDYFPEPVTVSWNSGALTSGVHTFPAVLQSSGLYSLSSVVTVPSSSLGTQTYICNVNHKPSNTKVDKRVEPKSCDKTHTCPPCPAPELLGGPSVFLFPPKPKDTLMISRTPEVTCVVVDVSHEDPEVKFNWYVDGVEVHNAKTKPREEQYNSTYRVVSVLTVLHQDWLNGKEYKCKVSNKALPAPIEKTISKAKGQPREPQVCTLPPSREEMTKNQVSLSCAVKGFYPSDIAVEWESNGQPENNYKTTPPVLDSDGSFFLVSKLTVDKSRWQQGNVFSCSVMHEALHNHYTQKSLSLSPGK
light: QLVLTQPPSVSGAPGQRVTISCTGSSSNIGAGYDVHWYQQLPGTAPKLLIYGNSNRPSGVPDRFSGSKSGTSASLAITGLQAEDEADYYCQSYDSSLSEEVFGGGTKLTVLGQPKANPTVTLFPPSSEELQANKATLVCLISDFYPGAVTVAWKADGSPVKAGVETTKPSKQSNNKYAASSYLSLTPEQWKSHRSYSCQVTHEGSTVEKTVAPTECS
chain: not shown
B3: BIM0556 (antibody, human IgG1, lambda)
heavy: not shown
light: B1 light
chain: not shown
notes: Half-arm (monovalent) anti-human CSF1R antibody, three chains as BIM0542; Heavy chain entry ends in X = K or absent; also called multispecific molecule 84; aCSF1R BI123 C1-R3B half-arm antibody
B4: BIM0555 (antibody, human IgG1, lambda)
heavy: not shown
light: B1 light
chain: not shown
notes: Half-arm (monovalent) anti-human CSF1R antibody, three chains as BIM0542; Heavy chain entry ends in X = K or absent; also called multispecific molecule 83; aCSF1R BI123 B6-R3B half-arm antibody
B5: BIM0567 (antibody, human IgG1, lambda)
heavy: B2 heavy with S99G, D101E, G102S, G104F
light: B2 light
chain: not shown
notes: Half-arm (monovalent) anti-human CSF1R antibody, three chains as BIM0542; Heavy chain entry ends in X = K or absent; also called multispecific molecule 86; aCSF1R BI117 D11-R3B half-arm antibody
B6: BIM0551 (antibody, human IgG1, lambda)
heavy: B2 heavy with S99N, V100S, G102S, Y108I
light: B2 light
chain: not shown
notes: Half-arm (monovalent) anti-human CSF1R antibody, three chains as BIM0542; Heavy chain entry ends in X = K or absent; also called multispecific molecule 79; aCSF1R BI117 B2-R3B half-arm antibody
B7: BIM0566 (antibody, human IgG1, lambda)
heavy: B2 heavy with V100G, D101R, G102L
light: B2 light
chain: not shown
notes: Half-arm (monovalent) anti-human CSF1R antibody, three chains as BIM0542; Heavy chain entry ends in X = K or absent; also called multispecific molecule 85; aCSF1R BI117 C6-R3B half-arm antibody
B8: BIM0550 (antibody, human IgG1, lambda)
heavy: B2 heavy with R54S, K65T, S99G, G104F
light: B2 light
chain: not shown
notes: Half-arm (monovalent) anti-human CSF1R antibody, three chains as BIM0542; Heavy chain entry ends in X = K or absent; also called multispecific molecule 78; aCSF1R BI117 A11-R3B half-arm antibody
B9: BIM0549 (antibody, human IgG1, lambda)
heavy: B2 heavy with V100S, D103S, G104T
light: B2 light
chain: not shown
notes: Half-arm (monovalent) anti-human CSF1R antibody, three chains as BIM0542; Heavy chain entry ends in X = K or absent; also called multispecific molecule 77; aCSF1R BI117 A6-R3B half-arm antibody
B10: BIM0553 (antibody, human IgG1, lambda)
heavy: B2 heavy with S99G, G104F, Y108F
light: B2 light
chain: not shown
notes: Half-arm (monovalent) anti-human CSF1R antibody, three chains as BIM0542; Heavy chain entry ends in X = K or absent; also called multispecific molecule 81; aCSF1R BI117 C5-R3B half-arm antibody

The binders below were run against T1, human CSF1R (human, UniProt P07333 20-972) (assay: cell-based or functional assay).
T1 sequence (P07333 20-972): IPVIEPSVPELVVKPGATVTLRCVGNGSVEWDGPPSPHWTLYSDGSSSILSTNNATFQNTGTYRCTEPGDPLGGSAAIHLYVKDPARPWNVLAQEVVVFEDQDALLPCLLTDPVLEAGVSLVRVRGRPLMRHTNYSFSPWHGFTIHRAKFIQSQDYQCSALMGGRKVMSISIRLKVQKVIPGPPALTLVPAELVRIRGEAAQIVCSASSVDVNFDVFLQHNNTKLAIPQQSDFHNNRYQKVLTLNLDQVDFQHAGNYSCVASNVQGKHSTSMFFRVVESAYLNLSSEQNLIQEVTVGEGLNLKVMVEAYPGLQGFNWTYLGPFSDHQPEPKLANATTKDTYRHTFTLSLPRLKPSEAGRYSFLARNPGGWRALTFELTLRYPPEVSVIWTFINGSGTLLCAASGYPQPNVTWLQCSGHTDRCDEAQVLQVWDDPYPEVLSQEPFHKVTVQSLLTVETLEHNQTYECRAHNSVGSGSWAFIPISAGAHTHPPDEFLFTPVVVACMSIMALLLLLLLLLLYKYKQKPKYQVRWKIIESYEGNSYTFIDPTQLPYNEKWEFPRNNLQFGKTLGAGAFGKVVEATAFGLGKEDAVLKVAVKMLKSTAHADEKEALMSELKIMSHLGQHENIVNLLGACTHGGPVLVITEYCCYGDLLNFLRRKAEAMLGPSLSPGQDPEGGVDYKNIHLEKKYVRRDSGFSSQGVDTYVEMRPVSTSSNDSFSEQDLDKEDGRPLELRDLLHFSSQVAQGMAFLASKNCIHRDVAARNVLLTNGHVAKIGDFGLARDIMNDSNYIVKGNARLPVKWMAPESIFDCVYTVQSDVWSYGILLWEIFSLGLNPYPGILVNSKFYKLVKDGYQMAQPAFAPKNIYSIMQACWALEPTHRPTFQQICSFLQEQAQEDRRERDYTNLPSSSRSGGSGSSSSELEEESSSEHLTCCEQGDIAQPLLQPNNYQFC

IC50 of reduction of MCP-1 (CCL2) secretion by human monocytes cultured with hCSF-1 (electrochemiluminescence) [nM]	Binder
≤ 30	B1
≤ 30	B2

Each binder was assayed against T2, human CSF1R-Fc ECD (human, UniProt P07333 20-517) (assay: ELISA, plate coated with 2 µg/mL human CSF1R, monovalent antibody titrated, anti-human Fc HRP).
T2 construct: extracellular domain; not shown: Fc part of the coated reagent, not described
T2 sequence (P07333 20-517): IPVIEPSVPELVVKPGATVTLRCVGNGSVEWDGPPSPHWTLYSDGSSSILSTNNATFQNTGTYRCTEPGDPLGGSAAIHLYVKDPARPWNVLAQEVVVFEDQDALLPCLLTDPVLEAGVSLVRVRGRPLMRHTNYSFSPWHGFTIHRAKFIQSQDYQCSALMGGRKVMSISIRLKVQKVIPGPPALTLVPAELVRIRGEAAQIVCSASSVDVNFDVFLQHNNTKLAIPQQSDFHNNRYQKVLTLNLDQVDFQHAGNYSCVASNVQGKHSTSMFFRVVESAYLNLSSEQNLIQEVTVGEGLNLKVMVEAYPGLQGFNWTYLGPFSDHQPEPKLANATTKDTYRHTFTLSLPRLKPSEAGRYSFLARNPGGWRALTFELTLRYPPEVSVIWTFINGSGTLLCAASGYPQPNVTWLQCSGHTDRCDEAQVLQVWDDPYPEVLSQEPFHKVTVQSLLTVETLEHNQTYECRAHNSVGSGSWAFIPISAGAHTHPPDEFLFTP
Description: Microplates were separately coated with 2 μg/mL of human or cyno CSF1R in 100 μL and blocked with 2% BSA. Serial dilutions of unlabeled monovalent human antibodies (11 points, 3-fold dilutions, 400 nM to […]) were transferred to the coated and blocked plates at 75 μL/well and incubated for 1 hr at room temperature. Plates were washed three times and incubated for 30 mins with anti-human Fc horseradish peroxidase conjugate followed by addition of TMB, a substrate of HRP. The plates were developed for 5 mins, stopped with 1M HCL and read at a wavelength of 450 nm.

binding result	Binder
binds	B3
binds	B4
binds	B5
binds	B6
binds	B7
binds	B8
binds	B9
binds	B10

These binders were tested against T1, human CSF1R (assay: flow cytometry on HEK-293T cells stably transduced with human CSF1R; anti-human Fc APC; percent APC positive).
Description: HEK-293T cells were lentivirally transduced with human CSF1R and stable cell lines were generated. Nearly all transduced cells expressed high levels of CSF1R. Cells were washed with PBS containing 0.5% BSA and 0.1% sodium azide (staining buffer) and added to 96-well V-bottom plates with 100,000 cells/well. Human anti-CSF1R monovalent antibodies were added to the cells in 2.5 fold serial dilutions and incubated for 2 hour at room temperature. The plates were washed twice with staining buffer. The secondary antibody against human Fc conjugated to APC was added at 1:200 dilution (1.5 mg/ml stock) and incubated with the cells for 1 hour at 4° C. followed by washing with staining buffer. Cells were subsequently stained with a live/dead dye to exclude any dying cells and were fixed for 10 minutes with 4% paraformaldehyde at room temperature. The plates were read on CytoFLEX LS (Beckman Coulter). Data was calculated as the percent-APC positive population.

binding result	Binder
binds	B3
binds	B4
binds	B5
binds	B6
binds	B7
binds	B8
binds	B9
binds	B10
